Source: patent publication US20260008818A1, “CYCLIC PEPTIDE OR SALT THEREOF, AND USES THEREOF” (FUJIFILM Corporation, priority 2023, published 2026)
Bridge positions count the residues as written; N and C are the ends. Square brackets hold non-standard residues; d marks the D form. Ends that are not written are not given here. COCH2 = acetyl group that carries the bridge; hCys = N[C@@H](CCS)C(=O)O; Orn = NCCC[C@H](N)C(=O)O; Dab = NCC[C@H](N)C(=O)O; Dap = NC[C@H](N)C(=O)O

T1: Recombinant Human FGFR1 alpha (IIIc) Fc Chimera Protein, CF (R&D systems, 658-FR-050) (human, UniProt P11362 22-376)
T1 construct: bought reagent; not shown: Fc of the bought chimera
T1 sequence (looked up): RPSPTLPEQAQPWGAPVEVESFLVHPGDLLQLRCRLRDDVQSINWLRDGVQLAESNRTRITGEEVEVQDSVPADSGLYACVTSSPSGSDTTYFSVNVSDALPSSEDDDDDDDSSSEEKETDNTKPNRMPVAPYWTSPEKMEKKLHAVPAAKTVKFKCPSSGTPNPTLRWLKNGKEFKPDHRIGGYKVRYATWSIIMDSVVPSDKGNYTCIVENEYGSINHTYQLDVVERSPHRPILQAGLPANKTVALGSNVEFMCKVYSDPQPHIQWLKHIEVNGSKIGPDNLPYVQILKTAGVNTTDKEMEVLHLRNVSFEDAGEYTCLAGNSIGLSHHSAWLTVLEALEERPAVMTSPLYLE


Experiments:
[1] = system: Recombinant Human FGFR1 alpha (IIIc) Fc Chimera Protein; experiment: Binding affinity of enzymatically synthesized cyclic peptide to FGFR by ELISA; conditions: luminescence signal at reaction concentration 10 nmol/L, SEQ ID NO: 39 standardized to 1, enzyme synthesis product
How it was run: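 Plate-immobilized FGFR1α(IIIc)-Fc (5 ng/well) incubated with Myc-tagged cyclic peptide 3 h at room temperature; bound peptide detected with anti-Myc antibody (2 h) and chemiluminescence. Signal is FGFR minus no-FGFR wells, normalized to SEQ ID NO: 39 at 10 nmol/L and graded A–D.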

[2] = Molecular stability of cyclic peptide after reducing agent (DTT) treatment, LC; format: physicochemical; conditions: residual rate after 12.6 mmol/L DTT aqueous solution, room temperature, 1 hour
Protocol: The molecular stability of the cyclic peptide was evaluated by analyzing an aqueous solution of the cyclic peptide treated with a reducing agent by liquid chromatography (LC).
The reducing agent treatment was performed under the following conditions based on the concentration of glutathione contained in the cells. 25 μL of a 0.2 mg/mL cyclic peptide aqueous solution was prepared, 58.8 μL of a 12.6 mmol/L DTT aqueous solution was added to the aqueous solution, and the mixture was incubated at room temperature for 1 hour to obtain an aqueous solution of the cyclic peptide treated with a reducing agent. The DTT aqueous solution was used by diluting a 1 mol/L (+-)-dithiothreitol (DTT) solution (FUJIFILM Wako Pure Chemical Corporation, 044-33871) with water. The total area of all the peaks in LC/MS of the cyclic peptide before the reducing agent treatment was set to 100%, and the proportion of the total area of all the peaks in LC/MS of the aqueous solution of the cyclic peptide treated with the reducing agent was determined to calculate the residual rate of the cyclic peptide, and the molecular stability was evaluated according to the following evaluation criteria. The evaluation result preferably satisfies the evaluation criteria A, B, or C.
• A: The residual rate of cyclic peptide is 90% or more. • B: The residual rate of the cyclic peptide is 70% or more and less than 90% • C: The residual rate of the cyclic peptide is 50% or more and less than 70% • D: The residual rate of the cyclic peptide is less than 50%
The LC used for the evaluation of molecular stability was set to the following conditions. • LC device: Prominence series (pump, column oven, autosampler, detector) (manufactured by Shimadzu Corporation) • Detector: photodiode array detector (SPD-M20A), measurement wavelength of 280 nm • Column: TSKgel ODS-100V, inner diameter of 4.6 mm×length of 150 mm, particle diameter of 5 μm (manufactured by Tosoh Corporation) • Eluent A: solution containing 0.1% trifluoroacetic acid as solute, and solvent is 100% water • Eluent B: solution containing 0.1% trifluoroacetic acid as solute, and solvent is 100% acetonitrile • Flow rate: 1.0 mL/min • Injection amount: 25 μL • Gradient: 20% to 50%: Eluent B (0 to 15 minutes), 100%: Eluent B (15 minutes) • Column temperature: 40° C.

[3] = biological target: T1, Recombinant Human FGFR1 alpha (IIIc) Fc …; experiment: SPR, FGFR1-Fc immobilized, 10 nmol/L peptide
Protocol: A CM5 sensor chip (Cytiva, 29149603) was set in Biacore-T200 (manufactured by Cytiva) which is a surface plasmon resonance device, and an HBS-EP buffer (Cytiva, BR100826) was added as a running buffer at a flow rate of 10 μL/min to equilibrate the flow channel. Next, 70 μL of a mixed aqueous solution of 0.2 mol/L 1-(3-dimethylaminopropyl)-3-ethylcarbodiimide (EDC) and 0.05 mol/L N-hydroxysuccinimide (NHS) was added to activate the sensor chip. Then, Recombinant Human FGFR 1 alpha (IIIc) Fc Chimera Protein CF (R&D systems, 658-FR-050) prepared at 50 nmol/L in an Acetate 4.5 buffer (Cytiva, BR100350) was added thereto to perform immobilization at about 5000 RU. Thereafter, the blocking treatment was performed with an ethanolamine solution. In addition, in another flow channel of the same sensor chip, blocking treatment was performed immediately after activation without immobilizing FGFR.
A cyclic peptide diluted to 10 nmol/L using HBS-EP was added to each flow channel of the FGFR-immobilized sensor chip produced above at 25° C. for 10 minutes, then HBS-EP was allowed to flow as a running buffer for 30 minutes, and the binding of the cyclic peptide to FGFR was measured. Thereafter, a regeneration treatment of removing the bound cyclic peptide was performed by repeating the flow of a regeneration liquid in which sodium chloride powder was dissolved in Glysine 1.5 (Cytiva, BR100354) to a final concentration of 0.15 mol/L for 1 minute in each flow channel twice. The binding amount of the cyclic peptide was evaluated from the difference between the measured value of Biacore-T200 in the flow channel in which FGFR was immobilized and the measured value of Biacore-T200 in the flow channel in which FGFR was not immobilated, in a case where a 10 nmol/L cyclic peptide was allowed to flow.

Molecule	Evaluation result of binding affinity to FGFR [1]	binding amount (SPR, cyclic peptide molecules bound per one molecule of FGFR at 10 nmol/L peptide) [3]	other results
365 (NCWGYTYIIPFNYISK(COCH2)T; thioether 2-16) [compound 365]	B (0.5 or more and less than 0.7)		
366 (HCQFNIHPWGAPFLVK(COCH2)E; thioether 2-16) [compound 366]	C (0.1 or more and less than 0.5)		
367 (WCRTWLWFEIPFWYQK(COCH2)E; thioether 2-16) [compound 367]	C (0.1 or more and less than 0.5)		
368 (ECKVHLHPWGAPFWIK(COCH2)S; thioether 2-16) [compound 368]	C (0.1 or more and less than 0.5)		
369 (HASYERCIFHGHEAPFWVK(COCH2)V; thioether 7-19) [compound 369]	C (0.1 or more and less than 0.5)		
370 (CYERLIFHGHEAPFWVK(COCH2)V; thioether 1-17) [compound 370]	A (0.7 or more)		
371 (CERLIFHGHEAPFWVK(COCH2)V; thioether 1-16) [compound 371]	A (0.7 or more)		
372 (CRLIFHGHEAPFWVK(COCH2)V; thioether 1-15) [compound 372]	C (0.1 or more and less than 0.5)		
373 (CERLIFHGHEAPFWVK(COCH2); thioether 1-16) [compound 373]	A (0.7 or more)		
383 (HCSYERLQFHGHEAPFRVCVKKK; disulfide 2-19) [compound 383]			Evaluation result of reductive stability [2]: D (The residual rate of the cyclic peptide is less than 50%)
H[hCys]SYERLQFHGHEAPFRVKVKKK (bridge 2-19; not fully specified (residue 19, bridges); printed as H-(Hcy)-SYERLQFHGHEAPFRV-(K(acetyl))-VKKK, chemically synthesized) [SEQ ID NO: 374]		≥ 0.7 moleculesofthecyclicpeptide/onemoleculeoffgfr	
XSYERLIFHGHEAPFWVXKKK (not fully specified; Orn(acetyl); Hcy; thioether ring (Orn(acetyl))-(Hcy), chemically synthesized) [SEQ ID NO: 385]		0.1 to 0.5 moleculesofthecyclicpeptide/onemoleculeoffgfr	
H[Dap]SYERLQFHGHEAPFRV[hCys]VKKK (bridge 2-19; not fully specified (residue 2, bridges); printed as H-(Dap(acetyl))-SYERLQFHGHEAPFRV-(Hcy)-VKKK, chemically synthesized) [SEQ ID NO: 381]		≥ 0.7 moleculesofthecyclicpeptide/onemoleculeoffgfr	
H[Dab]SYERLQFHGHEAPFRV[hCys]VKKK (bridge 2-19; not fully specified (residue 2, bridges); printed as H-(Dab(acetyl))-SYERLQFHGHEAPFRV-(Hcy)-VKKK, chemically synthesized) [SEQ ID NO: 380]		≥ 0.7 moleculesofthecyclicpeptide/onemoleculeoffgfr	
H[hCys]SYERLQFHGHEAPFRV[Dap]VKKK (bridge 2-19; not fully specified (residue 19, bridges); printed as H-(Hcy)-SYERLQFHGHEAPFRV-(Dap(acetyl))-VKKK, chemically synthesized) [SEQ ID NO: 377]		≥ 0.7 moleculesofthecyclicpeptide/onemoleculeoffgfr	
H[hCys]SYERLQFHGHEAPFRV[Dab]VKKK (bridge 2-19; not fully specified (residue 19, bridges); printed as H-(Hcy)-SYERLQFHGHEAPFRV-(Dab(acetyl))-VKKK, chemically synthesized) [SEQ ID NO: 376]		≥ 0.7 moleculesofthecyclicpeptide/onemoleculeoffgfr	
Ac-HASYERLIFHGHEAPFWVCVKKK (bridge N-19; not fully specified; printed as (Ac)-HASYERLIFHGHEAPFWV-(C)-VKKK, chemically synthesized) [SEQ ID NO: 386]		0.5 to 0.7 moleculesofthecyclicpeptide/onemoleculeoffgfr	
HXSYERLIFHGHEAPFWVXKKK (not fully specified; Orn(acetyl); Hcy; thioether ring (Orn(acetyl))-(Hcy), chemically synthesized) [SEQ ID NO: 389]		≥ 0.7 moleculesofthecyclicpeptide/onemoleculeoffgfr	
HXSYERLQFHGHEAPFRVXVKKK (not fully specified; Orn(acetyl); Hcy; thioether ring (Orn(acetyl))-(Hcy), chemically synthesized) [SEQ ID NO: 379]		≥ 0.7 moleculesofthecyclicpeptide/onemoleculeoffgfr	
HXSYERXIFHGHEAPFWVXVKKK (not fully specified; Hle (homoleucine); Orn(acetyl); Hcy; thioether ring (Orn(acetyl))-(Hcy), chemically synthesized) [SEQ ID NO: 388]		≥ 0.7 moleculesofthecyclicpeptide/onemoleculeoffgfr	
H[hCys]SYERLQFHGHEAPFRV[Orn]VKKK (bridge 2-19; not fully specified (residue 19, bridges); printed as H-(Hcy)-SYERLQFHGHEAPFRV-(Orn(acetyl))-VKKK, chemically synthesized) [SEQ ID NO: 375]		≥ 0.7 moleculesofthecyclicpeptide/onemoleculeoffgfr	
HXSYERLIFHGHEAPFWVXVKKK (not fully specified; meL (N-methyl leucine); Orn(acetyl); Hcy; thioether ring (Orn(acetyl))-(Hcy), chemically synthesized) [SEQ ID NO: 387]		≥ 0.7 moleculesofthecyclicpeptide/onemoleculeoffgfr	
HXSYERLIFHGHEAPFWVXVKKK (not fully specified; Orn(acetyl); Hcy; thioether ring (Orn(acetyl))-(Hcy), chemically synthesized) [SEQ ID NO: 384]		≥ 0.7 moleculesofthecyclicpeptide/onemoleculeoffgfr	
HKSYERLQFHGHEAPFRV[hCys]VKKK (bridge 2-19; not fully specified (residue 2, bridges); printed as H-(K(acetyl))-SYERLQFHGHEAPFRV-(Hcy)-VKKK, chemically synthesized) [SEQ ID NO: 378]		≥ 0.7 moleculesofthecyclicpeptide/onemoleculeoffgfr	
XSYERLIFHGHEAPFWVXVKKK (not fully specified; Orn(acetyl); Hcy; thioether ring (Orn(acetyl))-(Hcy), chemically synthesized) [SEQ ID NO: 390]		0.1 to 0.5 moleculesofthecyclicpeptide/onemoleculeoffgfr	
